In the DeepSol protein solubility set:

assay: soluble on expression in E. coli; label from the status in PepcDB or PDB records

Soluble on expression in E. coli, not soluble:
MAGDPMRRPHMSDATLVYDDDCGFCTWWADFIGERSDLEIVGFSALGDDLLERLPDDYESCSHLVTEEDVYSCGKSIETALTYTELGKPARPLVSFLRQFEDYERFRERAYRQVADNRSKWGKVMSKTPPARRDNSDLEHHHHHH
MAHHHHHHMDSPTEFSCGTQWDDDRRGEEPLLPELTLHGCGLRNLSLIVRGAQGAVYSAHDENGNRFAVKRLFTQRSDFGIRGVSEGALREATLLTLVRQEMEKLVHDTAFDVVRLQGVVEAPYKELCLILEYCSLDLSQVVVKSKRHTRSFPLVAEGPQVRCPVLSNMGVVRYLLRGILQILNNLHVNCRIIHRDVKLSNFLVRGDGSVRLSDFGSARLLHETVEEKEAAECVTSDPQDEDEVDCSDPFSHSCEGYTPAAQRTTLIYQAPECLLGERTYTTAVDVWAVGIVFAEILLQRHLFRSVNELTLISDIWRLLGTPSTKGEDPNIQGTNGVTFAAPTEPTVDVKFNDDIVSPEGRDLLKKMLEVDPKKRVTAADALRHSFLTSVDAQLSLKEAPALWREKVKECLEGGTQAVPMGAPFLALDDDEEEEEEEEDVDMNMATL
METIKSVDIYELGSPGEKSSPWSSTILIVKLTSSNGNIGYGEAPTTFMTLPVKESMREVERVFKDQNYFNIEKNMREFYKHSFYLSRSMEATSALSAFEIASWDLIGKDLGTPVYNLLGGEYNSELRAYANGWYSDCLEPDDFVSRAKEYIKKGYTAFKFDPFRNNFDRIGNDGIKKAVDIVSAMRSELGENIDLLIECHGRFSTKYAIKVGQALDEFNPLFIEEPIHPEMELGLFDFKRYVNTPVALGERLLNKEDFARYISQGMVDIVQADLTNSKGILEAKKISAIVESFGGLMAFHNAFGPVQTAATLNVDYTLTNFLIQESFEDSWPDWKRNLFSGYRIENGHFKLSGKPGLGITADEKLMEKLIYDGMEEFNKNEPSWVVSGTYK
MAGWVAKRFWKEASVAEEPGGFAVLLDGRGVRTPAKRPLILPTCALAEAVASEWQAQEGEVRPETMPVTRSANSALDKVAPQFDEVTEMLAAYGGTDLLCYRATAPEALVARQARAWDPVLAWAAERFEAPLETTAGVMHQAQPEASLTRLAEHVRSFSPFQVAGFHDLVAISGSLILGLGVTEGHLLPEEAWELSRVDESWQIEQWGADEEAAEIEAFRRTAFLQAARFYALCGKLAAALEHHHHHH
MGSDKIHHHHHHMAGNTIGQLFRVTTFGESHGLALGCIVDGVPPGIPLTEADLQHDLDRRRPGTSRYTTQRREPDQVKILSGVFEGVTTGTSIGLLIENTDQRSQDYSAIKDVFRPGHADYTYEQKYGLRDYRGGGRSSARETAMRVAAGAIAKKYLAEKFGIEIRGCLTQMGDIPLDIKDWSQVEQNPFFCPDPDKIDALDELMRALKKEGDSIGAKVTVVASGVPAGLGEPVFDRLDADIAHALMSINAVKGVEIGDGFDVVALRGSQNRDEITKDGFQSNHAGGILGGISSGQQIIAHMALKPTSSITVPGRTINRFGEEVEMITKGRHDPCVGIRAVPIAEAMLAIVLMDHLLRQRAQNADVKTDIPRW
LDPPSGELSLPEDIPGEAKVYFDDEGVPYIHASSDEAAFYAAGWVHASLRLFQMDVFRRVGLGELSGLVGEAGLEADRRAAILGLRSVVDAEWRHIQNNPEFGEIVRIVEAYTAGVNGYISYALKTGRLPVEYRVLGVKPSPWLPQDTLAMAKVLALMLSYSEDDLILDRLVRKWGPEVIADFDIVGRSLNMPHASCDMAVDWGDVTGLEGPYNPLLSVEERREPLHESEPLDLGYNPDPEIIAAVVDRVLYMLSWNAASNNWVVSGSLTVSGNPLLANDPHLSLTAPGIWLPIVISSPSYSLAGVTIPGVPLVVIGRNSHVAWGFTNVGSDFTDFYRYQWVDENRYFYKGRIFGVEKSSIEAYVWDPLARSYRVQEISVARTIHGPVIEWQGEKFAVSYTSARPTFEMIFLWLLNKASSVRDALSAQRYFYGPPQNMVVADSAGNIAYSPVGAYPERATLPTIETGYGPIVNTGFLPFDGSAGEGEWRGFKPYSSLPVLFNPPQGFVATANSKPFEDGCWDGLGWDYADRFRTERIYTLLQERSAEEPLDAGDMRDIQLDVEDLGLKTLVSLMVRVASGDGGHVLERYMDMLAEWAENPQM
MKRVLIVGATGTIGGVVRQTLLNETDNQLTLFARSANRLKTSERESVIAGDVTKDSDLDKAIAGQDVVFVALSGSLGRFAQKIVAAMDRNKVSRLLFITSMGIYDEIPASVGASGNLSSNPMLRTYREAADVVEASDLNYTLIRPGWFTGGPVDYEITKKGEPFGGHDVSINSIADFVKNAIVDNDYYAHDSVGLNAK
MSLQFEGDTITYVGTGRPASDEIIDATGKVVMPGFINTHAHVGMSASKGLFDDVDLERFLDMTFKYDSQRTEEGIFNSARLGMYEMINSGITSFVDLYYSENVIARAAEQVGIRAFLSWVTLDREFTTQKGDPLDNAENFIRSHQNMRFVKPSVGVQGIYVASDETYQRAKEIAERYDTIMHMHLSETRKEVYDSVKKIGERPIEHLDKIGVLSSRVIAAHCVWATYHEAKLLGKNGVNVSWNAVSNFKLATGGVPPVPEMLDAGVNITIGTDSNGSNNSLNFFEAMKFSALTVKNARWDASIIKSQQILDFATIDAAKALRLNAGSIEVGKKADIVILDARRPELIPTDKNNVVNNIVYSTNPASVDSVIIDGVFRKKGGRLIGFDEGGVASANVFVEGHHHHHH

Soluble on expression in E. coli, soluble:
MLAKRIIPCLDVDKGRVVKGVKFLNLRDAGDPVEVAKRYEEEGADELVFLDITASAEDREIMIDVVKKVAETVFMPFTVGGGIRSLEDMRRLLEAGADKISINTAAVKNPNLIYEGAKRFGSQCIVVAIDAKRKGNSWEVYIHGGRTPTGLDAVEWAKKVESLGAGEILLTSMDRDGTKDGYDIELNRAISEAVNIPVIASGGAGKKEHFYEVFSKTKVEAALAASVFHFREISIPELKEYLLERGINVRPLD
AHHHHHHGSLCEEKLEVFENGFKDDKHNIEIHVYGGDGRKVLLALIYELYSPEYGSEYVYPFECAKEFWGIYLDSSEVKGEEAELKPLKFISESVKSKIEKELEDIKAPIEVELEKSTIYKVKDGYIVLGKNFLLDHKGRLFVFNKPQVGEIILKYIWKW
SVCAAQNCQRPCKDKVDWVQCDGGCDEWFHQVCVGVSPEMAENEDYICINCA
MDLKGGESMVDWKLMQEIIEAPGVSGYEHLGIRDIVVDVLKEVADEVKVDKLGNVIAHFKGSSPRIMVAAHMDKIGVMVNHIDKDGYLHIVPIGGVLPETLVAQRIRFFTEKGERYGVVGVLPPHLRRGQEDKGSKIDWDQIVVDVGASSKEEAEEMGFRVGTVGEFAPNFTRLNEHRFATPYLDDRICLYAMIEAARQLGDHEADIYIVGSVQEEVGLRGARVASYAINPEVGIAMDVTFAKQPHDKGKIVPELGKGPVMDVGPNINPKLRAFADEVAKKYEIPLQVEPSPRPTGTDANVMQINREGVATAVLSIPIRYMHSQVELADARDVDNTIKLAKALLEELKPMDFTP
MLGDGLSVALAGLLHDVGKLYSRARWGERDDQVPDRTHTAYTAHFVREHAGLFRGAGLDPDWLARTASRHHEGWRDRPQYRPETPEEWCVALADTYASKEREEGEGGGSPPEVPLSPPFRRLLLGGEEGREGGYSPVGAGGRVGLEAGGLYPEERPNVSKDVYKRLLERLEGRLEEMARFSLGKEALVLNLALALQETLSLVPSDTQSEPDVSLYDHLRLTAAIAHALWLFHGGSPSAQNLRQDGEKFLLVVGDMGGIQGHIYRIAGAEAGVGGIAKRLRARSLEVSLAAEAMALGLLWRLGLTSLNRILGAGGKFYLLLPNTEEARAALEGTREAWGRWALKRGGSLVPHLAWVAFRGQDFRDFAALLKRLHEALAREKLRPFAFLASTGGVLGAPLRPCAACGLEPARRDEPGSLCPDCEREAALGARLPRSDRVGFFLEEAPRPYLDFPGLKVGLGGPLEGAFHLFRARLDFAPWPDPSEAKPLLGHLPRVEHALKAKGWSLEAYRAWAEEEGLLEDEEPHPEKVLTFAELAALSEGAPYLGALMLDADRMGEAFATGFRREGRDLATPSRLAALSRTLEVFFTTEVLTLLEEPRRYRERLGWDDLEAQRKEARYPLLYSVYSGGDDLFLLGPWDALLDFALDLERLYRLFTRHPRLTLSGGFLLVPPSLPVPELARLLGEAEKRAKAEGRERLFLFGQAVPWETLRGLRAWAEGLRQDLRAERVSRAQVYRWLLLWRRFSPLEDPGERMRYKPLLAYALRRVRERDEEAWKRYLKLLDHQDPAWAYLPVWVQWALYRERRV
